Source: patent US6051217, “Therapeutic uses of interleukin-3 (IL-3) multiple mutation polypeptides” (G. D. Searle & Co., dated 2000)

T1: hIL-3 receptor (human, UniProt P26951)
T1 sequence: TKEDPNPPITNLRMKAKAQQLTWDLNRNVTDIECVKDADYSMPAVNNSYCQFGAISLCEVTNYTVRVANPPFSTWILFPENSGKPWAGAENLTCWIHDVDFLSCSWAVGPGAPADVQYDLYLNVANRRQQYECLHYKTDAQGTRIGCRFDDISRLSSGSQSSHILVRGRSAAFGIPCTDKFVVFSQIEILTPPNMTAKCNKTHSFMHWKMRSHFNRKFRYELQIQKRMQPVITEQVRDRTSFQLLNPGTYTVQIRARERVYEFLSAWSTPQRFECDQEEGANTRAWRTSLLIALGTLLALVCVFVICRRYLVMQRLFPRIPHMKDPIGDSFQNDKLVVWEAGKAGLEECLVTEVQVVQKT


Molecular target: T1, hIL-3 receptor
Assay: cell-based or functional assay

| Binder | Relative Biological Activity (AML 193 proliferation) |
| --- | --- |
| pMON13366 polypeptide (ligand) MANCSIMIDEIIHHLKRPPAPLLDPNNLNNEDVSILMDRNLRLPNLESFVRAVKNLENASGIEAILRNLQPCLPSATAAPSRHPIIIKAGDWQEFREKLTFYLVTLEQAQEQQ | 38 EC50 (1-133)hIL-3 / EC50 mutant |
| pMON13380 polypeptide (ligand) MANCSIMIDEAIHHLKVPPAPLLDSNNLNSEDMDILMERNLRLPNLLAFVRAVKNLENASGIEAILRNLQPCLPSATAAPSRHPIIIKAGDWQEFREKLQFYLVTLEQAQEQQ | 0.05 EC50 (1-133)hIL-3 / EC50 mutant |
| pMON13396 polypeptide (ligand) MANCSIMIDEIIHHLKRPPAPLLDPNNLNAEDVDILMERNLRLPNLESFVRAVKNLENASGIEAILRNLQPCLPSATAAPSRHPIIIRMGDWQEFREKLTFYLVTLEQAQEQQ | 20 EC50 (1-133)hIL-3 / EC50 mutant |
| pMON13384 polypeptide (ligand) MANCSIMIDEIIHHLKRPPAPLLDPNNLNAEDVDILMERNLRLPNLESFVRAVKNLENASGIEAILRNLQPCLPSATAAPSRHPIIIKAGDWQEFREKLQFYLVTLEQAQEQQ | 0.25 EC50 (1-133)hIL-3 / EC50 mutant |
| pMON13367 polypeptide (ligand) MANCSIMIDEIIHHLKRPPAPLLDPNNLNAEDVSILMDRNLRLPNLESFVRAVKNLENASGIEAILRNLQPCLPSATAAPSRHPIIIKAGDWQEFREKLTFYLVTLEQAQEQQ | 36 EC50 (1-133)hIL-3 / EC50 mutant |
| pMON13379 polypeptide (ligand) MANCSIMIDEIIHHLKRPPAPLLDPNNLNAEDVSILMDRNLRLPNLESFVRAVKNLENASGIEAILRNLQPCLPSATAAPSRHPIIIKAGDWQEFREKLQFYLVTLEQAQEQQ | 0.9 EC50 (1-133)hIL-3 / EC50 mutant |
| pMON13373 polypeptide (ligand) MANCSIMIDEIIHHLKRPPAPLLDPNNLNDEDMSILMDRNLRLPNLESFVRAVKNLENASGIEAILRNLQPCLPSATAAPSRHPIIIKAGDWQEFREKLTFYLVTLEQAQEQQ | 12 EC50 (1-133)hIL-3 / EC50 mutant |
| pMON13397 polypeptide (ligand) MANCSIMIDEIIHHLKRPPAPLLDPNNLNAEDVDILMERNLRLPNLESFVRAVKNLENASGIEAILRNLWPCLPSATAAPSRHPIIIRMGDWQEFREKLTFYLVTLEQAQEQQ | 16 EC50 (1-133)hIL-3 / EC50 mutant |
| pMON13369 polypeptide (ligand) MANCSIMIDEIIHHLKRPPAPLLDPNNLNDEDVSILMDRNLRLPNLESFVRAVKNLENASGIEAILRNLQPCLPSATAAPSRHPIIIKAGDWQEFREKLTFYLVTLEQAQEQQ | 10 EC50 (1-133)hIL-3 / EC50 mutant |
| pMON13374 polypeptide (ligand) MANCSIMIDEIIHHLKRPPAPLLDPNNLNSEDMSILMDRNLRLPNLESFVRAVKNLENASGIEAILRNLQPCLPSATAAPSRHPIIIKAGDWQEFREKLTFYLVTLEQAQEQQ | 6 EC50 (1-133)hIL-3 / EC50 mutant |
| pMON13393 polypeptide (ligand) MANCSIMIDEAIHHLKRPPAPSLDPNNLNDEDMSILMERNLRLPNLESFVRAVKNLENASGIEAILRNLQPCLPSATAAPSRHPIIIKAGDWQEFREKLTFYLVTLEQAQEQQ | 32 EC50 (1-133)hIL-3 / EC50 mutant |
| pMON13370 polypeptide (ligand) MANCSIMIDEIIHHLKRPPAPLLDPNNLNAEDMSILMDRNLRLPNLESFVRAVKNLENASGIEAILRNLQPCLPSATAAPSRHPIIIKAGDWQEFREKLTFYLVTLEQAQEQQ | 6 EC50 (1-133)hIL-3 / EC50 mutant |
| pMON13385 polypeptide (ligand) MANCSIMIDEIIHHLKVPPRPSLDPNNLNAEDVDILMERNLRLPNLESFVRAVKNLENASGIEAILRNLQPCLPSATAAPSRHPIIIKAGDWQEFREKLTFYLVTLEQAQEQQ | 1 EC50 (1-133)hIL-3 / EC50 mutant |
| pMON13381 polypeptide (ligand) MANCSIMIDEIIHHLKRPPAPLLDPNNLNAEDVDILMERNLRLPNLESFVRAVKNLENASGIEAILRNLWPCLPSATAAPSRHPIIIKAGDWQEFREKLTFYLVTLEQAQEQQ | 10 EC50 (1-133)hIL-3 / EC50 mutant |
| pMON13392 polypeptide (ligand) MANCSIMIDEIIHHLKRPPAPLLDPNNLNDEDVDILMERNLRLPNLESFVRAVKNLENASGIEAILRNLQPCLPSATAAPSRHPIIIKAGDWQEFREKLTFYLVTLEQAQEQQ | 17 EC50 (1-133)hIL-3 / EC50 mutant |
| pMON13391 polypeptide (ligand) MANCSIMIDEIIHHLKRPPAPSLDPNNLNAEDVDILMERNLRLPNLESFVRAVKNLENASGIEAILRNLQPCLPSATAAPSRHPIIIKAGDWQEFREKLTFYLVTLEQAQEQQ | 30 EC50 (1-133)hIL-3 / EC50 mutant |
| pMON13368 polypeptide (ligand) MANCSIMIDEAIHHLKVPPAPLLDSNNLNSEDMDILMERNLRLPNLLAFVRAVKNLENASGIEAILRNLQPCLPSATAAPSRHPIIIKAGDWQEFREKLTFYLVTLEQAQEQQ | 1.6 EC50 (1-133)hIL-3 / EC50 mutant |
| pMON13382 polypeptide (ligand) MANCSIMIDEIIHHLKRPPAPLLDPNNLNAEDVDILMERNLRLPNLESFVRAVKNLENASGIEAILRNLQPCLPSATAAPSRHPIIIKAGDWQEFREKLQFYLWTLEQAQEQQ | 38 EC50 (1-133)hIL-3 / EC50 mutant |
| pMON13387 polypeptide (ligand) MANCSIMIDEIIHHLKRPPAPLLDPNNLNAEDVDILMDRNLRLPNLESFVRAVKNLENASGIEAILRNLQPCLPSATAAPSRHPIIIKAGDWQEFREKLTFYLVTLEQAQEQQ | 32 EC50 (1-133)hIL-3 / EC50 mutant |
| pMON13388 polypeptide (ligand) MANCSIMIDEIIHHLKRPPAPLLDPNNLNAEDVDILMDRNLRLSNLESFVRAVKNLENASGIEAILRNLQPCLPSATAAPSRHPIIIKAGDWQEFREKLTFYLVTLEQAQEQQ | 23 EC50 (1-133)hIL-3 / EC50 mutant |
| pMON13389 polypeptide (ligand) MANCSIMIDEIIHHLKRPPAPLLDPNNLNDEDMDILMERNLRLPNLESFVRAVKNLENASGIEAILRNLQPCLPSATAAPSRHPIIIKAGDWQEFREKLTFYLVTLEQAQEQQ | 10 EC50 (1-133)hIL-3 / EC50 mutant |
| pMON13375 polypeptide (ligand) MANCSIMIDEIIHHLKRPPAPLLDPNNLNAEDVDILMERNLRLPNLESFVRAVKNLENASGIEAILRNLQPCLPSATAAPSRHPIIIKAGDWQEFREKLTFYLVTLE | 14 EC50 (1-133)hIL-3 / EC50 mutant |
| pMON13376 polypeptide (ligand) MDNCSIMIDEAIHHLKRPPAPLLDPNNLNAEDVDILMERNLRLPNLESFVRAVKNLENASGIEAILRNLQPCLPSATAAPSRHPIIIKAGDWQEFREKLQFYLVTLE | 0.4 EC50 (1-133)hIL-3 / EC50 mutant |
